{"source": "ChEMBL document CHEMBL1157388", "about": "“Recent developments in fragment-based drug discovery” (J Med Chem, 2008)", "proteins": {"B1": {"name": "Receptor-type tyrosine-protein phosphatase beta (Homo sapiens), P23467 (protein)", "chain": "MLSHGAGLALWITLSLLQTGLAEPERCNFTLAESKASSHSVSIQWRILGSPCNFSLIYSSDTLGAALCPTFRIDNTTYGCNLQDLQAGTIYNFRIISLDEERTVVLQTDPLPPARFGVSKEKTTSTSLHVWWTPSSGKVTSYEVQLFDENNQKIQGVQIQESTSWNEYTFFNLTAGSKYNIAITAVSGGKRSFSVYTNGSTVPSPVKDIGISTKANSLLISWSHGSGNVERYRLMLMDKGILVHGGVVDKHATSYAFHGLTPGYLYNLTVMTEAAGLQNYRWKLVRTAPMEVSNLKVTNDGSLTSLKVKWQRPPGNVDSYNITLSHKGTIKESRVLAPWITETHFKELVPGRLYQVTVSCVSGELSAQKMAVGRTFPDKVANLEANNNGRMRSLVVSWSPPAGDWEQYRILLFNDSVVLLNITVGKEETQYVMDDTGLVPGRQYEVEVIVESGNLKNSERCQGRTVPLAVLQLRVKHANETSLSIMWQTPVAEWEKYIISLADRDLLLIHKSLSKDAKEFTFTDLVPGRKYMATVTSISGDLKNSSSVKGRTVPAQVTDLHVANQGMTSSLFTNWTQAQGDVEFYQVLLIHENVVIKNESISSETSRYSFHSLKSGSLYSVVVTTVSGGISSRQVVVEGRTVPSSVSGVTVNNSGRNDYLSVSWLLAPGDVDNYEVTLSHDGKVVQSLVIAKSVRECSFSSLTPGRLYTVTITTRSGKYENHSFSQERTVPDKVQGVSVSNSARSDYLRVSWVHATGDFDHYEVTIKNKNNFIQTKSIPKSENECVFVQLVPGRLYSVTVTTKSGQYEANEQGNGRTIPEPVKDLTLRNRSTEDLHVTWSGANGDVDQYEIQLLFNDMKVFPPFHLVNTATEYRFTSLTPGRQYKILVLTISGDVQQSAFIEGFTVPSAVKNIHISPNGATDSLTVNWTPGGGDVDSYTVSAFRHSQKVDSQTIPKHVFEHTFHRLEAGEQYQIMIASVSGSLKNQINVVGRTVPASVQGVIADNAYSSYSLIVSWQKAAGVAERYDILLLTENGILLRNTSEPATTKQHKFEDLTPGKKYKIQILTVSGGLFSKEAQTEGRTVPAAVTDLRITENSTRHLSFRWTASEGELSWYNIFLYNPDGNLQERAQVDPLVQSFSFQNLLQGRMYKMVIVTHSGELSNESFIFGRTVPASVSHLRGSNRNTTDSLWFNWSPASGDFDFYELILYNPNGTKKENWKDKDLTEWRFQGLVPGRKYVLWVVTHSGDLSNKVTAESRTAPSPPSLMSFADIANTSLAITWKGPPDWTDYNDFELQWLPRDALTVFNPYNNRKSEGRIVYGLRPGRSYQFNVKTVSGDSWKTYSKPIFGSVRTKPDKIQNLHCRPQNSTAIACSWIPPDSDFDGYSIECRKMDTQEVEFSRKLEKEKSLLNIMMLVPHKRYLVSIKVQSAGMTSEVVEDSTITMIDRPPPPPPHIRVNEKDVLISKSSINFTVNCSWFSDTNGAVKYFTVVVREADGSDELKPEQQHPLPSYLEYRHNASIRVYQTNYFASKCAENPNSNSKSFNIKLGAEMESLGGKCDPTQQKFCDGPLKPHTAYRISIRAFTQLFDEDLKEFTKPLYSDTFFSLPITTESEPLFGAIEGVSAGLFLIGMLVAVVALLICRQKVSHGRERPSARLSIRRDRPLSVHLNLGQKGNRKTSCPIKINQFEGHFMKLQADSNYLLSKEYEELKDVGRNQSCDIALLPENRGKNRYNNILPYDATRVKLSNVDDDPCSDYINASYIPGNNFRREYIVTQGPLPGTKDDFWKMVWEQNVHNIVMVTQCVEKGRVKCDHYWPADQDSLYYGDLILQMLSESVLPEWTIREFKICGEEQLDAHRLIRHFHYTVWPDHGVPETTQSLIQFVRTVRDYINRSPGAGPTVVHCSAGVGRTGTFIALDRILQQLDSKDSVDIYGAVHDLRLHRVHMVQTECQYVYLHQCVRDVLRARKLRSEQENPLFPIYENVNPEYHRDPVYSRH"}}, "key": {"[1]": {"substrate": "O=[N+]([O-])c1ccc(OP(=O)(O)O)cc1"}, "[2]": {"substrate": "O=P(O)(O)Oc1ccc(-c2ccccc2)cc1"}}}
{"protein": "B1", "values": [{"measurement": "Km", "setting": "[1]", "result": 1340, "unit": "µM"}, {"measurement": "Km", "setting": "[2]", "result": 86, "unit": "µM"}]}
